Experimental data taken from article PMC7587174, “ACE Inhibitory Activity and Molecular Docking of Gac Seed Protein Hydrolysate Purified by HILIC and RP-HPLC” (Molecules, 2020).
Like-named read-outs stand apart in the source and are kept apart here. Residues, ends and D or L forms follow the SMILES beside them. No end group written: not given here.

Legend:
[1] = molecular target: angiotensin I-converting enzyme (ACE) (Homo sapiens, UniProt P12821); test: In vitro ACE inhibitory assay (HHL substrate, RP-HPLC detection); format: biochemical; details: synthetic peptides, purity >95%; HHL substrate 2.5 mM (30 µL), ACE 0.05 mU/µL (20 µL), pre-incubation 37 °C 5 min, incubation 37 °C 30 min; HPLC-UV 228 nm; non-linear regression, nine concentrations, repeated three times; read-out: IC50 of synthetic peptides against ACE
Experimental: The method to determine the ACE inhibitory activity of gac seeds peptides hydrolysate was adapted according to a previous report with slight modification. Briefly, the sample dissolved in ddH2O (10 µL) was added to 2.5 mM hippuryl-L-histidyl-L-leucine (30 µL). Borate buffer (10 µL) was used as blank solution. In total, 50 µM Captopril (10 µL) was used as positive control. The samples, blank, and positive control were incubated at 37 °C for 5 min. Then, 0.05 mU/µL of ACE (20 µL) was added into each solution. The reaction mixture was incubated at 37 °C for 30 min and mixed in a shaker incubator at 200 rpm for 30 min. The reaction was stopped by adding 1 N HCl (60 µL). After, 0.25 mg/mL ferulic acid (10 µL) was added as an internal standard. Samples were centrifuged (Hitachi Koki Co., Ltd., Tokyo, Japan) at 15,000 rpm for 2 min. The samples were separated by RP-HPLC using a C18 column (4.6 mm × 250 mm, particle size 5 µm) (Macherey-Nagel, Duren, Germany). Samples were selected using an isocratic gradient of 95% solvent A and […] solvent B at a flow rate of 1 mL/min. Solvent A was prepared by 5% acetonitrile + 0.1% trifluoroacetic acid and solvent B was prepared by 95% acetonitrile + 0.1% trifluoroacetic acid. Absorbance was measured using a UV detector at 228 nm. ACE inhibitory activity (%) was examined in triplicate and calculated according to the following equation:ACE-inhibitory activity (%) = [1 − (ΔAinhibition)/(ΔAcontrol)] × 100%, where ΔAinhibition and ΔAcontrol are the peak areas in the sample with or without inhibitor.
The definition of IC50 is the peptide concentration required to inhibit 50% of angiotensin-converting enzyme. The IC50 was calculated using non-linear regression of the ACE inhibitory activity (%) from nine different concentrations. This assay was repeated three times for each experiment.

[2] = molecular target: T1, ACE (Homo sapiens, UniProt P12821); test: Kinetics of ACE inhibition (Lineweaver-Burk plot); format: biochemical; details: with increasing ALVY concentration
Experimental: Kinetics of ACE inhibition was determined by a previous method with some modifications. The hydrolysis rate of HHL by ACE over a range of HHL concentrations of 0.005, 0.1, 0.5, 1, and 2 mM was measured while varying the concentrations of ALVY. The modes of ACE inhibition were determined from Lineweaver-Burk plots while inhibition parameters (Vmax and Km) were calculated, respectively, as the Y- and X-axis intercepts of the primary plot.

[3] = molecular target: T1, ACE; set-up: method as in 6 sources, ref 38 = [38]; PMID 31264418; doi:10.1021/acs.jafc.9b01922; 38. Shih Y.H. Chen F.A. Wang L.F. Hsu J.L. Discovery and study of novel antihypertensive peptides derived from cassia obtusifolia seeds J. Agric. Food Chem. 2019 67 7810 7820 10.1021/acs.jafc.9b01922 ||| ref 39 = [39]; PMID 26948626; doi:10.1016/j.foodchem.2016.02.097; 39. Gangopadhyay N. Wynne K. O’Connor P. Gallagher E. Brunton N.P. Rai D.K. Hayes M. In silico and in vitro analyses of the angiotensin-I converting enzyme inhibitory activity of hydrolysates generate ||| ref 40 = [40]; PMID 26344130; doi:10.1016/j.jprot.2015.08.018; 40. Priyanto A.D. Doerksen R.J. Chang C.-I. Sung W.-C. Widjanarko S.B. Kusnadi J. Lin Y.-C. Wang T.-C. Hsu J.-L. Screening, discovery, and characterization of angiotensin-I converting enzyme inhibitor ||| ref 41 = [41]; PMID 29112398; doi:10.1021/acs.jafc.7b04522; 41. Orio L.P. Boschin G. Recca T. Morelli C.F. Ragona L. Francescato P. Arnoldi A. Speranza G. New ACE-inhibitory peptides from hemp seed ( Cannabis sativa L.) proteins J. Agric. Food Chem. 2017 65 10 ||| ref 42 = [42]; PMID 21381782; doi:10.1021/jf104998s; 42. Yang R. Zou Y. Yu N. Gu Z. Accumulation and identification of angiotensin-converting enzyme inhibitory peptides from wheat germ J. Agric. Food Chem. 2011 59 3598 3605 10.1021/jf104998s 21381782 ||| ...; details: cited from earlier work
[4] = molecular target: Angiotensin I-converting enzyme (UniProt P12821)
Chain of Angiotensin I-converting enzyme (P12821 30-1306): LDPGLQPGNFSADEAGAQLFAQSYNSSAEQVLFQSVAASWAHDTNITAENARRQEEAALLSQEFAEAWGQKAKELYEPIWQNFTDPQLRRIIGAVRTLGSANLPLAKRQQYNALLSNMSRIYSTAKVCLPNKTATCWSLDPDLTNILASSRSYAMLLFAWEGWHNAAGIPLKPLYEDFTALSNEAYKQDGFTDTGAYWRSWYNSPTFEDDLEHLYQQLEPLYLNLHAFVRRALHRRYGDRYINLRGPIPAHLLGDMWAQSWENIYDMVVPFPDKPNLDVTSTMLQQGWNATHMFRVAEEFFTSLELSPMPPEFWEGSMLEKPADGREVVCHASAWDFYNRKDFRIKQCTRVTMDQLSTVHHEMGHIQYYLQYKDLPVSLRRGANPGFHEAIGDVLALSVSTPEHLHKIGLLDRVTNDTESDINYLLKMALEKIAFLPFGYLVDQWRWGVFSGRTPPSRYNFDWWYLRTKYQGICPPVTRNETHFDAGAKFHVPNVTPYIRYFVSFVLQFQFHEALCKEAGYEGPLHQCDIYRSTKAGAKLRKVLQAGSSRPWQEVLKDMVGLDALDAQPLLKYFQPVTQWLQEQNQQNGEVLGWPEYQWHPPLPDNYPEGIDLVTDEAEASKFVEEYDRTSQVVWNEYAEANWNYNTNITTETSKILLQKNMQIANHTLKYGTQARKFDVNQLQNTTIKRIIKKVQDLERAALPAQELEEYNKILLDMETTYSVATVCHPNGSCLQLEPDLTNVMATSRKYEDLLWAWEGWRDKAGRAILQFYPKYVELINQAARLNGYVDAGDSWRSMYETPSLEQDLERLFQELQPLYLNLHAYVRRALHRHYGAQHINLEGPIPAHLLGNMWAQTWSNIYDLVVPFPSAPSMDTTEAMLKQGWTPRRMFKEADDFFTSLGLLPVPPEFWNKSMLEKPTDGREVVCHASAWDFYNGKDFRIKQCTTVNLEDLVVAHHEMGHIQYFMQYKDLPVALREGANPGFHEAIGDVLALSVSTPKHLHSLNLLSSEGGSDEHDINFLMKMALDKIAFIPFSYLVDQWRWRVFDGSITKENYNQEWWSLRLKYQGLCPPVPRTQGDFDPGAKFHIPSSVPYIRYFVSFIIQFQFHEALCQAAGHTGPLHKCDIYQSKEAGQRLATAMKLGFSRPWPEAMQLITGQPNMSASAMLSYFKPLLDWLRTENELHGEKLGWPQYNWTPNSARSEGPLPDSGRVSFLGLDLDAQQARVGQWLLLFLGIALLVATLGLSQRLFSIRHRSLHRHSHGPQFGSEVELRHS

Chain of angiotensin I-converting enzyme (ACE) (P12821 30-1306, species assumed): as the sequence (P12821 30-1306) above
T1 sequence (P12821 30-1306, species assumed): as the sequence (P12821 30-1306) above

IC50 of ACE inhibitory activity (hydrolysis of hippuryl-L-histidyl-L-leucine by ACE, 37 °C, RP-HPLC read-out at 228 nm; synthetic peptide, nine concentrations) [4] [µM]	Molecule	IC50 [1] [µM]	further results
	CC(C)C[C@H](NC(=O)[C@H](C)N)C(=O)N[C@H](C(=O)N[C@@H](Cc1ccc(O)cc1)C(=O)O)C(C)C [ALVY] (H-ALVY-OH)	7.03 ± 0.09	Effect on Km [2]: increased with the increasing peptide concentration
	LLAPHY [LLAPHY]	15.9 ± 0.52	
	LSTSTDVR-OH [LSTSTDVR]	> 167	
	CC(C)C[C@H](NC(=O)[C@@H](N)CC(C)C)C(=O)N[C@H](C(=O)N[C@@H](Cc1ccc(O)cc1)C(=O)O)C(C)C [LLVY] (H-LLVY-OH)	87.8 ± 3.37	
	FHAPWK [peptide from Cassia obtusifolia seeds]		IC50 ([3]; Cassia obtusifolia seeds, read-out: IC50 (Cassia obtusifolia seeds peptide)): 16.8 µM
	VSGAGRY [peptide from bitter melon seeds]		IC50 ([3]; bitter melon seeds, read-out: IC50 (bitter melon seeds peptide)): 8.6 µM
> 167	LSTSTDVR		
7.03	ALVY		
87.8	LLVY		
15.9	LLAPHY		
